B1: EBOV NP residues 25–457 ([change]) (domain or fragment)
chain: LTAGLSVQQGIVRQRVIPVYQVNNLEEICQLIIQAFEAGVDFQESADSFLLMLCLHHAYQGDYKLFLESGAVKYLEGHGFRFEVKKRDGVKRLEELLPAVSSGKNIKRTLAAMPEEETTEANAGQFLSFASLFLPKLVVGEKACLEKVQRQIQVHAEQGLIQYPTAWQSVGHMMVIFRLMRTNFLIKFLLIHQGMHMVAGHDANDAVISNSVAQARFSGLLIVKTVLDHILQKTERGVRLHPLARTAKVKNEVNSFKAALSSLAKHGEYAPFARLLNLSGVNNLEHGLFPQLSAIALGVATAHGSTLAGVNVGEQYQQLREAATEAEKQLQQYAESRELDHLGLDDQEKKILMNFHQKKNEISFQQTNAMVTLRKERLAKLTEAITAASLPKTSGHYDDDDDIPFPGPINDDDNPGHQDDDPTDSQDTTIPDV
B2: EBOV VP35 peptide 27–48 (peptide)
peptide: GWISEQLMTGRIPVSDIFCDIE
B3: EBOV VP35 peptide 1–45 (peptide)
peptide: MTTRTKGRGHTAATTQNDRMPGPELSGWISEQLMTGRIPVSDIFC
B4: EBOV VP35 1–168 (domain or fragment)
chain: MTTRTKGRGHTAATTQNDRMPGPELSGWISEQLMTGRIPVSDIFCDIENNPGLCYASQMQQTKPNPKTRNSQTQTDPICNHSFEEVVQTLASLATVVQQQTIASESLEQRITSLENGLKPVYDMAKTISSLNRVCAEMVAKYDLLVMTTGRATATAAATEAYWAEHGQ

How the values were obtained:
SEC = biological target: the molecule itself; experiment: SEC
[1] = biological target: B1; experiment: ITC

Row | Binder | fold reduction in binding affinity relative to NPBP [1] [fold] | further results
1 | B1 | – | binding result (SEC): binds
2 | B2 | 6.5 | –
3 | B3 | 1.5 | –
4 | B4 | – | binding result [1]: binds
